Test results as given in the supplement of paper PMC11196671.
± gives the standard deviation of the averaged measurements.

Test: terephthalic acid (TPA) released, HPLC; higher = more TPA released; extreme values may be limits of the assay
Conditions: 24 h
Method: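 Purified PET hydrolases, 2.5 ug enzyme on 3.5 mg amorphous PET film (aFilm) or crystalline PET powder (cryPow) in 0.5 mL of 50 mM buffer (NaCitrate pH 4.5/5.5, NaPhosphate 6.5/7.5, glycine 8.5/9.5) at 60 or 70 C with shaking for 24 h. Total aromatic product by UV-Vis (260/280 nm, blank-subtracted, normalised per mg enzyme) and individual TPA, MHET, BHET concentrations by UHPLC-DAD at 240 nm; duplicate reactions.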

[1] = PET substrate: aFilm, 60 °C, pH 4.5
[2] = PET substrate: aFilm, 60 °C, pH 5.5
[3] = PET substrate: aFilm, 60 °C, pH 6.5
[4] = PET substrate: aFilm, 60 °C, pH 7.5
[5] = PET substrate: aFilm, 60 °C, pH 8.5
[6] = PET substrate: aFilm, 60 °C, pH 9.5
[7] = PET substrate: aFilm, 70 °C, pH 4.5
[8] = PET substrate: aFilm, 70 °C, pH 5.5
[9] = PET substrate: aFilm, 70 °C, pH 6.5
[10] = PET substrate: aFilm, 70 °C, pH 7.5
[11] = PET substrate: aFilm, 70 °C, pH 8.5
[12] = PET substrate: aFilm, 70 °C, pH 9.5
[13] = PET substrate: cryPow, 60 °C, pH 4.5
[14] = PET substrate: cryPow, 60 °C, pH 5.5
[15] = PET substrate: cryPow, 60 °C, pH 6.5
[16] = PET substrate: cryPow, 60 °C, pH 7.5
[17] = PET substrate: cryPow, 60 °C, pH 8.5
[18] = PET substrate: cryPow, 60 °C, pH 9.5
[19] = PET substrate: cryPow, 70 °C, pH 4.5
[20] = PET substrate: cryPow, 70 °C, pH 5.5
[21] = PET substrate: cryPow, 70 °C, pH 6.5
[22] = PET substrate: cryPow, 70 °C, pH 7.5
[23] = PET substrate: cryPow, 70 °C, pH 8.5
[24] = PET substrate: cryPow, 70 °C, pH 9.5

| Sequence | terephthalic acid [1] [mM] | terephthalic acid [2] [mM] | terephthalic acid [3] [mM] | terephthalic acid [4] [mM] | terephthalic acid [5] [mM] | terephthalic acid [6] [mM] | terephthalic acid [7] [mM] | terephthalic acid [8] [mM] | terephthalic acid [9] [mM] | terephthalic acid [10] [mM] | terephthalic acid [11] [mM] | terephthalic acid [12] [mM] | terephthalic acid [13] [mM] | terephthalic acid [14] [mM] | terephthalic acid [15] [mM] | terephthalic acid [16] [mM] | terephthalic acid [17] [mM] | terephthalic acid [18] [mM] | terephthalic acid [19] [mM] | terephthalic acid [20] [mM] | terephthalic acid [21] [mM] | terephthalic acid [22] [mM] | terephthalic acid [23] [mM] | terephthalic acid [24] [mM] |
| --- | --- | --- | --- | --- | --- | --- | --- | --- | --- | --- | --- | --- | --- | --- | --- | --- | --- | --- | --- | --- | --- | --- | --- | --- |
| SNPYQRGPNPTRSALTADGPFSVRTYTISRLSVSGFGGGVIYYPTGTSLTFGGIAMSPGYTADASSLAWLGRRLASHGFVVLVINTNSRFDGPDSRASQLSAALNYLRTSSPSAVRARLDANRLAVAGHSMGGGGTLRIAEQNPSLKAAVPLTPWHTDKTFNTSVPVLIVGAEADTVAPVSQHAIPFYQNLPSTTPKVYVELCNASHIAPNSPNAAISVYTISWMKLWVDNDTRYRQFLCNVNDPALCDFRTNNRHCQ [LCC-ICCG RIP] | 0.0858 ± 0.039 | 0.202 ± 0.018 | 0.423 ± 0.091 | 1.96 ± 0.034 | 0.346 ± 0.022 | 1.27 ± 0.21 | 0.00741 ± 0.011 | 0.255 ± 0.036 | 0.361 ± 0.0096 | 1.63 ± 0.096 | 0.2235 ± 0.00086 | 1.66 ± 0.21 | 0.0388 ± 0.004 | 0.0956 ± 0.00098 | 0.113 ± 0.0086 | 0.147 ± 0.015 | 0.121 ± 0.061 | 0.307 ± 0.072 | 0.00368 ± 0.0052 | 0.057 ± 0.0034 | 0.0917 ± 0.0036 | 0.322 ± 0.049 | 0.118 ± 0.015 | 0.4635 ± 0.0039 |
| ADNPYQRGPDPTNASIEAATGPFAVGTQPIVGASGFGGGQIYYPTDTSQTYGAVVIVPGFISVWAQLAWLGPRLASQGFVVIGIETSTITDLPDPRGDQALAALDWATTRSPVRSRIDRTRLAAAGWSMGGGGLRRAACQRPSLKAIVGMAPWNTEKNWSCVTVPTLFFGGSSDAVASPNDHAKPFYNSITRAEKDYIELCNADHFFPTSANTTMAKYFISWLKRWVDNDTRYTQFLCPGPSTGLFAPVCASMNTCPF [CaPETaseM9] | 0.00338 ± 0.0048 | 0.0407 ± 0.023 | 0.0535 ± 0.013 | 0.165 ± 0.0089 | 0.0537 ± 0.0038 | 0.297 ± 0.045 | 0 | 0 | 0 | 0 | 0 | 0.00887 ± 0.0016 | 0.0214 ± 0.0012 | 0.0432 ± 0.00074 | 0.0325 ± 0.011 | 0.0946 ± 0.028 | 0.0338 ± 0.0062 | 0.336 ± 0.11 | 0 | 0.0031 ± 0.0044 | 0.0109 ± 0.0021 | 0.0454 ± 0.008 | 0.0207 ± 0.0003 | 0.0926 ± 0.054 |
| QDNPYERGPDPTEDSIEAIRGPFSVATERVSSFASGFGGGTIYYPRETDEGTFGAVAVAPGFTASQGSMSWYGERVASHGFIVFTIDTNTRLDAPGQRGRQLLAALDYLVERSDRKVRERLDPNRLAVMGHSMGGGGSLEATVMRPSLKASIPLTPWHLDKTWGQVQVPTFIIGAELDTIAPVSTHAKPFYESLPSSLPKAYMELCGATHFAPNIPNTTIAKYVISWLKRFVDEDTRYSQFLCPNPTDRAICEYRSTCPY [Cut190*SS] | 0 | 0 | 0.00808 ± 0.0024 | 0.0544 ± 0.007 | 0.0241 ± 0.0042 | 0.319 ± 0.037 | 0 | 0 | 0 | 0.142 ± 0.013 | 0 | 0.477 ± 0.06 | 0 | 0.0115 ± 0.0016 | 0.016 ± 0.0019 | 0.0676 ± 0.012 | 0.04 ± 0.012 | 0.302 ± 0.11 | 0 | 0 | 0.00353 ± 0.005 | 0.0546 ± 0.0012 | 0.01301 ± 0.00011 | 0.0846 ± 0.029 |
| QTNPYARGPNPTAASLEASAGPFTVRSFTVARPVGYGAGTVYYPTNAGGTVGAIAIVPGYTATQSSINWWGPRLASHGFVVITIDTNSTLDKPESRSSQQMAALRQVASLNGTSSSPIYGKVDTARGGVMGWSMGGGGSLISAANNPSLKAAAVMAPWHSSTNFSSVTVPTLIFACENDRIAPVKEYALPIYDSMSLNAKQFLEICGGSHSCACSGNSNQALIGMKGVAWMKRFMDNDTRYSQFACENPNSTAVCDFRTANCS [HotPETase] | 0 | 0.359 ± 0.0079 | 0.226 ± 0.034 | 1.04 ± 0.11 | 0.135 ± 0.023 | 1.35 ± 0.052 | 0 | 0.00384 ± 0.0054 | 0.0729 ± 0.087 | 0.17 ± 0.18 | 0.0776 ± 0.023 | 0.684 ± 0.23 | 0.0209 ± 0.014 | 0.1228 ± 0.00078 | 0.157 ± 0.0075 | 0.3121 ± 0.0016 | 0.211 ± 0.0059 | 0.681 ± 0.028 | 0 | 0.07122 ± 0.00039 | 0.118 ± 0.0081 | 0.262 ± 0.051 | 0.113 ± 0.0023 | 0.489 ± 0.077 |
| SNPYQRGPNPTRSALTADGPFSVATYTVSRLSVSGFGGGVIYYPTGTSLTFGGIAMSPGYTADASSLAWLGRRLASHGFVVLVINTNSRFDGPDSRASQLSAALNYLRTSDPSAVRARLDANRLAVAGHSMGGGATLRIAEQNPSLKAAIPLTPWHTQKTFNTSVPVLIVGAEADTVAPVSQHAIPFYQNLPSTTPKVYVELCNASHIAPNSNNAAISVYTISWMKLWVDNDTRYRQFLCNVNDPALCDFRTNNRHCQ [LCC-ICCG DAQI] | 0.0488 ± 0.0093 | 0.279 ± 0.0061 | 0.541 ± 0.14 | 3.26 ± 0.3 | 0.517 ± 0.04 | 1.99 ± 0.35 | 0 | 0.1646 ± 0.00022 | 0.296 ± 0.044 | 2.26 ± 0.43 | 0.205 ± 0.037 | 1.45 ± 0.086 | 0.0214 ± 0.0007 | 0.0856 ± 0.009 | 0.0997 ± 0.011 | 0.216 ± 0.024 | 0.103 ± 0.0061 | 0.441 ± 0.029 | 0 | 0.04158 ± 9.1e-05 | 0.0736 ± 0.0043 | 0.401 ± 0.017 | 0.0916 ± 0.0065 | 0.659 ± 0.042 |
